US20260234255A1 (Genmab, published 2026)

Assays:
human CD30 [1] = target: T1, human CD30 (human, UniProt P28908 19-595); test: cell-based or functional assay
T1 sequence: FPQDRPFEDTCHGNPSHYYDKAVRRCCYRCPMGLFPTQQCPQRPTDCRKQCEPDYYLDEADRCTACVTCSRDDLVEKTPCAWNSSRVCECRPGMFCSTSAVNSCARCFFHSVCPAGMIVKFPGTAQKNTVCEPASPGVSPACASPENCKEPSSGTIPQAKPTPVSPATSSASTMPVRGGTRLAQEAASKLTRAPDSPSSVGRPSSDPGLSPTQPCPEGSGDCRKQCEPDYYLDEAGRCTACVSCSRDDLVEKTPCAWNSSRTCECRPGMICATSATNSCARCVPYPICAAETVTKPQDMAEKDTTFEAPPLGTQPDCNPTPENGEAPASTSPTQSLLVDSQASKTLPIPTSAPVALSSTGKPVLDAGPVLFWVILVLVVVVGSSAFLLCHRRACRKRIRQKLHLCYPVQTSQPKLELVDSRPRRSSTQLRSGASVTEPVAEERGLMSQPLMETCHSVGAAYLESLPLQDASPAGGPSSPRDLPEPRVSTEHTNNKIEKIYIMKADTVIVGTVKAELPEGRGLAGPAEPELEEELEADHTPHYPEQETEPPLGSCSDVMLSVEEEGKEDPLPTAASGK

human CD30 [2] = target: T1, human CD30; test: flow cytometry, HDLM-2 cells
Experimental: (§1) Binding of CD3×CD30 bispecific antibodies to two CD30-expressing human tumor cell lines SU-DHL-1 (ALCL; ATCC, cat. no. ACC 356) and HDLM-2 (HL; ATCC, cat. no. CRL-2965) was analyzed […] by flow cytometry.
(§2) Cells (3×10⁴ cells/well) were incubated in polystyrene 96-well round-bottom plates (Greiner bio-one, cat. no. 650180) with serial dilutions of antibodies (range 0.0046 to 10 μg/mL in 3-fold dilution steps) in 50 μL staining buffer at 4° C. for 30 min. After washing twice in staining buffer, cells were incubated with 50 μL secondary antibody at 4° C. for 30 min. […] Next, cells were washed twice in staining buffer, resuspended in 100 μL staining buffer supplemented with TO-PRO-3 iodide (Thermo Fisher Scientific; cat. no. T3605; 1:8000 dilution) and analyzed on a FACSCelesta flow cytometer (BD Biosciences, USA). Live cells were gated based on FSC/SSC and absence of TOPRO-3 staining. Binding curves were analyzed by non-linear regression of log-transformed data (sigmoidal dose-response with variable slope, four parameters) using GraphPad Prism V7.02 software (GraphPad Software, San Diego, CA, USA).

human CD30 [3] = target: T1, human CD30; test: flow cytometry, SU-DHL-1 cells
Experimental: as §1, §2

human CD30 [4] = target: T1, human CD30; test: flow cytometry, Expi293F cells transfected with human CD30
Experimental: Cells (3×10⁴ cells/well) were incubated in polystyrene 96-well round-bottom plates (Greiner bio-one, cat. no. 650180) with serial dilutions of antibodies (ranging from 0.005 to 10 μg/mL in 3-fold dilution steps) in 100 μL staining buffer at 4° C. for 30 min. Experiments were performed in technical duplicate. After washing twice in staining buffer, cells were incubated in 50 μL secondary antibody at 4° C. for 30 min. As a secondary antibody, R-PE-conjugated goat-anti-human IgG (Jackson ImmunoResearch, UK; cat. no. 109⁻¹¹⁶-098) diluted 1:400 in staining buffer was used. Cells were washed twice in staining buffer, resuspended in 30 μL staining buffer containing 0.4% EDTA and analyzed on an iQue Screener (Intellicyt Corporation, USA). Binding curves were analyzed using non-linear regression (sigmoidal dose-response with variable slope) using GraphPad Prism V9.0.0 software (GraphPad Software, San Diego, CA, USA).

B1: bsG1-huCD3-FEALxCD30-HeFi-I-FEAR (bispecific antibody, human IgG1, kappa, lambda)
heavy 1: not shown
light 1: not shown
heavy 2: EVKLVESGGGLVQPGGSLRLSCATSGFTFSDYYMNWVRQPPGKALEWLGFIRNKANGYTTEFSASVMGRFTISRDDSQSILYLQMNTLRAEDSATYYCARDPPYGNPHYYAMDYWGQGTSVTVSSASTKGPSVFPLAPSSKSTSGGTAALGCLVKDYFPEPVTVSWNSGALTSGVHTFPAVLQSSGLYSLSSVVTVPSSSLGTQTYICNVNHKPSNTKVDKRVEPKSCDKTHTCPPCPAPEFEGGPSVFLFPPKPKDTLMISRTPEVTCVVVAVSHEDPEVKFNWYVDGVEVHNAKTKPREEQYNSTYRVVSVLTVLHQDWLNGKEYKCKVSNKALPAPIEKTISKAKGQPREPQVYTLPPSREEMTKNQVSLTCLVKGFYPSDIAVEWESNGQPENNYKTTPPVLDSDGSFFLYSRLTVDKSRWQQGNVFSCSVMHEALHNHYTQKSLSLSPG
light 2: not shown
notes: Bispecific IgG1 made by controlled Fab-arm exchange; also called BsIgG1-huCD3-FEALxCD30-HeFi-I-FEAR
- T-cell mediated cytotoxicity of Karpas-299 cells, IC50 average (human CD30 [1]): 0.052 µg/mL
- T-cell mediated cytotoxicity of Karpas-299 cells, maximum lysis average (human CD30 [1]): 43%
- EC50 (read off the curve) (human CD30 [2]): ~0.3 µg/mL
- EC50 (read off the curve) (human CD30 [3]): ~0.3 µg/mL
- EC50 (read off the curve) (human CD30 [4]): ~0.1 µg/mL

B2: bsG1-huCD3-FEALxCD30-T405-FEAR (bispecific antibody, human IgG1, kappa, lambda)
heavy 1: not shown
light 1: not shown
heavy 2: QVQLQQIGAELVRPGASVKLSCKASGYTFNNYWINWVKQRPGQGLEWIGNIYPSDSRSNYNQKFKDKATLTVDKPSSTAYMQLSSPTSEDSAVYYCTLGSYWGQGTLVTVSAASTKGPSVFPLAPSSKSTSGGTAALGCLVKDYFPEPVTVSWNSGALTSGVHTFPAVLQSSGLYSLSSVVTVPSSSLGTQTYICNVNHKPSNTKVDKRVEPKSCDKTHTCPPCPAPEFEGGPSVFLFPPKPKDTLMISRTPEVTCVVVAVSHEDPEVKFNWYVDGVEVHNAKTKPREEQYNSTYRVVSVLTVLHQDWLNGKEYKCKVSNKALPAPIEKTISKAKGQPREPQVYTLPPSREEMTKNQVSLTCLVKGFYPSDIAVEWESNGQPENNYKTTPPVLDSDGSFFLYSRLTVDKSRWQQGNVFSCSVMHEALHNHYTQKSLSLSPG
light 2: DVVMTQTPLTLSVTIGQPASISCKSSQSLSDSDGKTYLNWLLQRPGQSPKRLIYLVSKLDSGVPDRFTGSGSGTDFTLKISRVEAEDLGVYYCWQGAHFPRTFGGGTKLEIKRTVAAPSVFIFPPSDEQLKSGTASVVCLLNNFYPREAKVQWKVDNALQSGNSQESVTEQDSKDSTYSLSSTLTLSKADYEKHKVYACEVTHQGLSSPVTKSFNRGEC
notes: Bispecific IgG1 made by controlled Fab-arm exchange; also called bsIgG1-huCD3-FEALxCD30-T405-FEAR
- T-cell mediated cytotoxicity of Karpas-299 cells, IC50 average (human CD30 [1]): 0.078 µg/mL
- T-cell mediated cytotoxicity of Karpas-299 cells, maximum lysis average (human CD30 [1]): 41.7%
- EC50 (read off the curve) (human CD30 [2]): ~1 µg/mL
- EC50 (read off the curve) (human CD30 [4]): ~0.7 µg/mL

B3: bsG1-huCD3-FEALxCD30-T408-FEAR (bispecific antibody, human IgG1, kappa, lambda)
heavy 1: not shown
light 1: not shown
heavy 2: QVQLQQPGAELVRPGASVKLSCKASGYTFTSYWINWVKQRPGQGLEWIGNIYPSDSYSNYNQKFKDKATLTVDKSSSTAYMQLSSPTSEDSAVYYCTLGSYWGQGTLVTVSAASTKGPSVFPLAPSSKSTSGGTAALGCLVKDYFPEPVTVSWNSGALTSGVHTFPAVLQSSGLYSLSSVVTVPSSSLGTQTYICNVNHKPSNTKVDKRVEPKSCDKTHTCPPCPAPEFEGGPSVFLFPPKPKDTLMISRTPEVTCVVVAVSHEDPEVKFNWYVDGVEVHNAKTKPREEQYNSTYRVVSVLTVLHQDWLNGKEYKCKVSNKALPAPIEKTISKAKGQPREPQVYTLPPSREEMTKNQVSLTCLVKGFYPSDIAVEWESNGQPENNYKTTPPVLDSDGSFFLYSRLTVDKSRWQQGNVFSCSVMHEALHNHYTQKSLSLSPG
light 2: DVVMTQTPLTLSVTIGQPASISCKSSQSLSDSDGKTYLNWLLQRPGQSPKRLIYLVSKLDSGVPDRFTGSGSGTDFTLKISRVEAEDLGVYYCWQGAHFPRTFGGGTKLEIKRTVAAPSVFIFPPSDEQLKSGTASVVCLLNNFYPREAKVQWKVDNALQSGNSQESVTEQDSKDSTYSLSSTLTLSKADYEKHKVYACEVTHQGLSSPVTKSFNRGEC
- T-cell mediated cytotoxicity of Karpas-299 cells, IC50 average (human CD30 [1]): 0.226 µg/mL
- T-cell mediated cytotoxicity of Karpas-299 cells, maximum lysis average (human CD30 [1]): 41.3%

B4: bsG1-huCD3-FEALxCD30-T215-FEAR (bispecific antibody, human IgG1, kappa, lambda)
heavy 1: not shown
light 1: not shown
heavy 2: not shown
light 2: DIVMTQSQKFMSTSVGDRVSVTCKASQNVFTNVAWYQQKLGQSPKPLIYSASYRYSGVPDRFTGSGSGTDFTLTISDVQSEDLAEYFCQQYNSYPVTFGAGTKLELKRTVAAPSVFIFPPSDEQLKSGTASVVCLLNNFYPREAKVQWKVDNALQSGNSQESVTEQDSKDSTYSLSSTLTLSKADYEKHKVYACEVTHQGLSSPVTKSFNRGEC
notes: Bispecific IgG1 made by controlled Fab-arm exchange; also called bsIgG1-huCD3-FEALxCD30-T215-FEAR
- T-cell mediated cytotoxicity of Karpas-299 cells, IC50 average (human CD30 [1]): 0.077 µg/mL
- T-cell mediated cytotoxicity of Karpas-299 cells, maximum lysis average (human CD30 [1]): 42.8%
- EC50 (read off the curve) (human CD30 [2]): ~0.6 µg/mL

B5: bsG1-huCD3-FEALxCD30-hAC10-FEAR (bispecific antibody, human IgG1, kappa, lambda)
heavy 1: not shown
light 1: not shown
heavy 2: QVQLVQSGAEVKKPGASVKVSCKASGYTFTDYYITWVRQAPGQGLEWMGWIYPGSGNTKYNEKFKGRVTMTRDTSISTAYMELSRLRSDDTAVYYCANYGNYWFAYWGQGTLVTVSSASTKGPSVFPLAPSSKSTSGGTAALGCLVKDYFPEPVTVSWNSGALTSGVHTFPAVLQSSGLYSLSSVVTVPSSSLGTQTYICNVNHKPSNTKVDKRVEPKSCDKTHTCPPCPAPEFEGGPSVFLFPPKPKDTLMISRTPEVTCVVVAVSHEDPEVKFNWYVDGVEVHNAKTKPREEQYNSTYRVVSVLTVLHQDWLNGKEYKCKVSNKALPAPIEKTISKAKGQPREPQVYTLPPSREEMTKNQVSLTCLVKGFYPSDIAVEWESNGQPENNYKTTPPVLDSDGSFFLYSRLTVDKSRWQQGNVFSCSVMHEALHNHYTQKSLSLSPG
light 2: not shown
notes: Bispecific IgG1 made by controlled Fab-arm exchange
- EC50 (read off the curve) (human CD30 [2]): ~0.2 µg/mL
- EC50 (read off the curve) (human CD30 [3]): ~0.2 µg/mL

B6: IgG1-CD30-HeFi-I-FEAR (antibody, V domains shown)
VH: EVKLVESGGGLVQPGGSLRLSCATSGFTFSDYYMNWVRQPPGKALEWLGFIRNKANGYTTEFSASVMGRFTISRDDSQSILYLQMNTLRAEDSATYYCARDPPYGNPHYYAMDYWGQGTSVTVSS
VL: DIVLTQSPASLAVSLGQRATISCRASKSVSASGYNYMHWYQQKAGQPPKLLIHLASNLESGVPARFSGSGSGTDFTLNIHPVEEEDASTYYCQHSGELPFTFGSGTKLEIKR
notes: Monospecific, bivalent parental antibody
- binding result (human CD30 [4]): binds

B7: IgG1-CD30-hAC10-FEAR (antibody, V domains shown)
VH: QVQLVQSGAEVKKPGASVKVSCKASGYTFTDYYITWVRQAPGQGLEWMGWIYPGSGNTKYNEKFKGRVTMTRDTSISTAYMELSRLRSDDTAVYYCANYGNYWFAYWGQGTLVTVSS
VL: DIVMTQSPDSLAVSLGERATINCKASQSVDFDGDSYMNWYQQKPGQPPKLLIYAASNLESGVPDRFSGSGSGTDFTLTISSLQAEDVAVYYCQQSNEDPWTFGQGTKVEIKR
notes: as for B6
- EC50 (read off the curve) (human CD30 [2]): ~0.1 µg/mL

B8: IgG1-CD30-HRS-3-FEAR (antibody, V domains shown)
VH: QVQLQQSGAELARPGASVKMSCKASGYTFTTYTIHWVRQRPGHDLEWIGYINPSSGYSDYNQNFKGKTTLTADKSSNTAYMQLNSLTSEDSAVYYCARRADYGNYEYTWFAYWGQGTTVTVSS
VL: DIVMTQSPKFMSTSVGDRVTVTCKASQNVGTNVAWFQQKPGQSPKVLIYSASYRYSGVPDRFTGSGSGTDFTLTISNVQSEDLAEYFCQQYHTYPLTFGGGTKLEINR
notes: as for B6
- EC50 (read off the curve) (human CD30 [2]): ~0.2 µg/mL
- EC50 (read off the curve) (human CD30 [3]): ~0.2 µg/mL

B9: IgG1-CD30-T215-FEAR (antibody, V domains shown)
VH: QVTLKESGPGILQPSQTLSLTCSFSGFSLSVSGMGVSWIRQPSGKGLEWLAHIHWDDDRRSNPSLRSRLTISKDTSNNQVFLKITSVDTADTATYYCARRPDLYGNYFFFDFWGQGTTLTVSS
VL: DIVMTQSQKFMSTSVGDRVSVTCKASQNVFTNVAWYQQKLGQSPKPLIYSASYRYSGVPDRFTGSGSGTDFTLTISDVQSEDLAEYFCQQYNSYPVTFGAGTKLELKR
notes: as for B6
- EC50 (read off the curve) (human CD30 [2]): ~0.2 µg/mL
- EC50 (read off the curve) (human CD30 [3]): ~0.1 µg/mL
